Assay results published in patent publication US20180244754A1.

Biological target: human GH receptor (hGHR) (human) (UniProt P10912)
Test: cell-based or functional assay

UniProt P10912, sequence (P10912 19-638): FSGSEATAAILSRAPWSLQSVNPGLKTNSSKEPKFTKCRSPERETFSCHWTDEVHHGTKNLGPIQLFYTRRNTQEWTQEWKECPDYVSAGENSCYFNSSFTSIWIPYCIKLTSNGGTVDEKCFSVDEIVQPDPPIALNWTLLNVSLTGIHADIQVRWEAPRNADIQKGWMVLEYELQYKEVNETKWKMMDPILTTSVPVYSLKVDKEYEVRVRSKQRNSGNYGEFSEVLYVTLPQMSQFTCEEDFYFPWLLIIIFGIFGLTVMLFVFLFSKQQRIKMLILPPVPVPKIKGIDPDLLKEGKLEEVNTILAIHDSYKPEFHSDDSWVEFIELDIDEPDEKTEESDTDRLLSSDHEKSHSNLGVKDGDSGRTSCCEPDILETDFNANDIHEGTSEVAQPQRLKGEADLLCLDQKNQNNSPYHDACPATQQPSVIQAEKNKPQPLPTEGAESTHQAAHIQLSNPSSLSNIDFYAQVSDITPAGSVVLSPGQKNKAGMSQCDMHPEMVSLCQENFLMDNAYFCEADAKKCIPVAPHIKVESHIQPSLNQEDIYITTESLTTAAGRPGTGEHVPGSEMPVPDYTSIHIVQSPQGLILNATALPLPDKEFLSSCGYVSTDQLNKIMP

| EC50 (nM), cell growth activity using BaF3/hGHR cells (absorbance at 490 nM) | EC50 of 22KhGH-HSA relative to EC50 of HSA-22KhGH, cell growth activity using BaF3/hGHR cells | EC50 of 22KhGH-mHSA relative to EC50 of mHSA-22KhGH, cell growth activity using BaF3/hGHR cells | Substance |
| --- | --- | --- | --- |
| 0.878 nM | 6.4 times | – | 22KhGH-HSA (ligand) |
| 1.2 nM | – | 7.8 times | 22KhGH-mHSA (ligand) |
| 0.138 nM | – | – | HSA-22KhGH (ligand) |
| 0.153 nM | – | – | mHSA-22KhGH (ligand) |
